Test results from publication PMC6901573 (Scientific Reports, 2019).

B1: Human hemoglobin A, oxidized form (methemoglobin, MetHb) (complex)
chain 1: not shown
chain 2: not shown
B2: Human alpha-semihemoglobin, oxidized (met) form (complex)
chain 1: not shown
chain 2: not shown
B3: Human beta-semihemoglobin, oxidized (met) form (complex)
chain 1: not shown
chain 2: not shown

Assays:
[1] = target: T1, IsdB (NEAT1 and NEAT2 domains connected by the helical linker), wild type (S. aureus, UniProt Q8NX66 125-485); assay: SPR; conditions: both partners purified
[2] = target: T1, IsdB (NEAT1 and NEAT2 domains connected …); assay: SPR; conditions: both partners purified; remark: listed apart in the source

T1 sequence (Q8NX66 125-485): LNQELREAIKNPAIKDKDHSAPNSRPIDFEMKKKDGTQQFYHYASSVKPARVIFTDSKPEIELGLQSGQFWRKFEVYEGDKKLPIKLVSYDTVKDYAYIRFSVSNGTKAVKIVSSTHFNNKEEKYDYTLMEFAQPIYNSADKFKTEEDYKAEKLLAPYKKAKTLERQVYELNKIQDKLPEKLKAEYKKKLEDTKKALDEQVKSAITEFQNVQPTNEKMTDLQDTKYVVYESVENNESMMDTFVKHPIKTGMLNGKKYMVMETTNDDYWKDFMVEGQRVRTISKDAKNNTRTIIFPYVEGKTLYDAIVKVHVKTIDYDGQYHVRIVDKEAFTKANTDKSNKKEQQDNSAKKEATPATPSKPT

| Binder | KD of the first, reversible step of the two-state irreversible model [1] | KD of the first, reversible step of the two-state irreversible model [2] |
| --- | --- | --- |
| B1 | 69 ± 1 nM | 70 ± 6 nM |
| B2 | – | 108 ± 11 nM |
| B3 | – | 91 ± 5 nM |
